{"source": "patent US10508143", "about": "(ALETA BIOTHERAPEUTICS, dated 2019)", "binders": {"B1": {"name": "CD19-D1+2-Leu16 scFv (VL/VH) (scFv)", "chain": "PEEPLVVKVEEGDNAVLQCLKGTSDGPTQQLTWSRESPLKPFLKLSLGLPGLGIHMRPLAIWLFIFNVSQQMGGFYLCQPGPPSEKAWQPGWTVNVEGSGELFRWNVSDLGGLGCGLKNRSSEGPSSPSGKLMSPKLYVWAKDRPEIWEGEPPCLPPRDSLNQSLSQDLTMAPGSTLWLSCGVPPDSVSRGPLSWTHVHPKGPKSLLSLELKDDRPARDMWVMETGLLLPRATAQDAGKYYCHRGNLTMSFHLEITARPGGGGSGGGGSGGGGSGGGGSDIELTQSPTILSASPGEKVTMTCRASSSVNYMDWYQKKPGSSPKPWIYATSNLASGVPARFSGSGSGTSYSLTISRVEAEDAATYYCQQWSFNPPTFGGGTKLEIKRGGGGSGGGGSGGGGSMAQVKLQESGAELVKPGASVKMSCKASGYTFTSYNMHWVKQTPGQGLEWIGAIYPGNGDTSYNQKFKGKATLTADKSSSTAYMQLSSLTSEDSADYYCARSNYYGSSYWFFDVWGQGTTVTVSSAAAHHHHHH", "notes": "C-terminal His tag; also called construct #85; #85"}, "B2": {"name": "CD19-D1+2-Leu16 scFv (VH/VL) (scFv)", "chain": "PEEPLVVKVEEGDNAVLQCLKGTSDGPTQQLTWSRESPLKPFLKLSLGLPGLGIHMRPLAIWLFIFNVSQQMGGFYLCQPGPPSEKAWQPGWTVNVEGSGELFRWNVSDLGGLGCGLKNRSSEGPSSPSGKLMSPKLYVWAKDRPEIWEGEPPCLPPRDSLNQSLSQDLTMAPGSTLWLSCGVPPDSVSRGPLSWTHVHPKGPKSLLSLELKDDRPARDMWVMETGLLLPRATAQDAGKYYCHRGNLTMSFHLEITARPGGGGSGGGGSGGGGSGGGGSMAQVKLQESGAELVKPGASVKMSCKASGYTFTSYNMHWVKQTPGQGLEWIGAIYPGNGDTSYNQKFKGKATLTADKSSSTAYMQLSSLTSEDSADYYCARSNYYGSSYWFFDVWGQGTTVTVSSGGGGSGGGGSGGGGSDIELTQSPTILSASPGEKVTMTCRASSSVNYMDWYQKKPGSSPKPWIYATSNLASGVPARFSGSGSGTSYSLTISRVEAEDAATYYCQQWSFNPPTFGGGTKLEIKRAAAHHHHHH", "notes": "C-terminal His tag; also called construct #83; #83"}, "B3": {"name": "C11D5.3 scFv (VH/VL) (scFv)", "scFv": "QIQLVQSGPELKKPGETVKISCKASGYTFTDYSINWVKRAPGKGLKWMGWINTETREPAYAYDFRGRFAFSLETSASTAYLQINNLKYEDTATYFCALDYSYAMDYWGQGTSVTVSSGSTSGSGKPGSGEGSTKGDIVLTQSPPSLAMSLGKRATISCRASESVTILGSHLIHWYQQKPGQPPTLLIQLASNVQTGVPARFSGSGSRTDFTLTIDPVEEDDVAVYYCLQSRTIPRTFGGGTKLEIKGGGGSGGGGSGGGGSHHHHHH", "notes": "His-tagged; also called construct #90; #90"}, "B4": {"name": "CD19-D1+2-C11D5.3 scFv (VH/VL) (scFv)", "chain": "PEEPLVVKVEEGDNAVLQCLKGTSDGPTQQLTWSRESPLKPFLKLSLGLPGLGIHMRPLAIWLFIFNVSQQMGGFYLCQPGPPSEKAWQPGWTVNVEGSGELFRWNVSDLGGLGCGLKNRSSEGPSSPSGKLMSPKLYVWAKDRPEIWEGEPPCLPPRDSLNQSLSQDLTMAPGSTLWLSCGVPPDSVSRGPLSWTHVHPKGPKSLLSLELKDDRPARDMWVMETGLLLPRATAQDAGKYYCHRGNLTMSFHLEITARPGGGGSGGGGSGGGGSGGGGSQIQLVQSGPELKKPGETVKISCKASGYTFTDYSINWVKRAPGKGLKWMGWINTETREPAYAYDFRGRFAFSLETSASTAYLQINNLKYEDTATYFCALDYSYAMDYWGQGTSVTVSSGSTSGSGKPGSGEGSTKGDIVLTQSPPSLAMSLGKRATISCRASESVTILGSHLIHWYQQKPGQPPTLLIQLASNVQTGVPARFSGSGSRTDFTLTIDPVEEDDVAVYYCLQSRTIPRTFGGGTKLEIKGGGGSGGGGSGGGGSHHHHHH", "notes": "His-tagged; also called construct #92; #92"}, "B5": {"name": "purified CD19 protein control (other, UniProt P15391 20-291, looked up)", "chain": "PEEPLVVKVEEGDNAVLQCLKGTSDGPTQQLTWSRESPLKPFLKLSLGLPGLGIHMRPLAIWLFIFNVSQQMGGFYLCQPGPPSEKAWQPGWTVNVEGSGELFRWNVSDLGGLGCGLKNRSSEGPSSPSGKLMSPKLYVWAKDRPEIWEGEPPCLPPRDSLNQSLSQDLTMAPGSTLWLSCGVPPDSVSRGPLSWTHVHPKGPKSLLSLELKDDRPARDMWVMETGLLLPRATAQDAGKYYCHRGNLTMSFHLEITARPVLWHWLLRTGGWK"}, "B6": {"name": "CD22-D123-Leu16 scFv (VH/VL) (scFv)", "chain": "DSSKWVFEHPETLYAWEGACVWIPCTYRALDGDLESFILFHNPEYNKNTSKFDGTRLYESTKDGKVPSEQKRVQFLGDKNKACTLSIHPVHLNDSGQLGLRMESKTEKWMERIHLNVSERPFPPHIQLPPEIQESQEVTLTCLLNFSCYGYPIQLQWLLEGVPMRQAAVTSTSLTIKSVFTRSELKFSPQWSHHGKIVTCQLQDADGKFLSNDTVQLNVKHTPKLEIKVTPSDAIVREGDSVTMTCEVSSSNPEYTTVSWLKDGTSLKKQNTFTLNLREVTKDQSGKYCCQVSNDVGPGRSEEVFLQVQYAPEGGGGSGGGGSGGGGSGGGGSEVQLQQSGAELVKPGASVKMSCKASGYTFTSYNMHWVKQTPGQGLEWIGAIYPGNGDTSYNQKFKGKATLTADKSSSTAYMQLSSLTSEDSADYYCARSNYYGSSYWFFDVWGAGTTVTVSSGSTSGGGSGGGSGGGGSSDIVLTQSPAILSASPGEKVTMTCRASSSVNYMDWYQKKPGSSPKPWIYATSNLASGVPARFSGSGSGTSYSLTISRVEAEDAATYYCQQWSFNPPTFGGGTKLEIKHHHHHH", "notes": "First three domains of CD22 (further mutated) fused to Leu16 scFv, C-terminal His tag; also called construct #65; #65"}, "B7": {"name": "CD19-ECD-Leu16 scFv (VH/VL) (scFv)", "chain": "PEEPLVVKVEEGDNAVLQCLKGTSDGPTQQLTWSRESPLKPFLKLSLGLPGLGIHMRPLAIWLFIFNVSQQMGGFYLCQPGPPSEKAWQPGWTVNVEGSGELFRWNVSDLGGLGCGLKNRSSEGPSSPSGKLMSPKLYVWAKDRPEIWEGEPPCLPPRDSLNQSLSQDLTMAPGSTLWLSCGVPPDSVSRGPLSWTHVHPKGPKSLLSLELKDDRPARDMWVMETGLLLPRATAQDAGKYYCHRGNLTMSFHLEITARPVLWHWLLRTGGWKGGGGSGGGGSGGGGSGGGGSEVQLQQSGAELVKPGASVKMSCKASGYTFTSYNMHWVKQTPGQGLEWIGAIYPGNGDTSYNQKFKGKATLTADKSSSTAYMQLSSLTSEDSADYYCARSNYYGSSYWFFDVWGAGTTVTVSSGSTSGGGSGGGSGGGGSSDIVLTQSPAILSASPGEKVTMTCRASSSVNYMDWYQKKPGSSPKPWIYATSNLASGVPARFSGSGSGTSYSLTISRVEAEDAATYYCQQWSFNPPTFGGGTKLEIKHHHHHH", "notes": "C-terminal His tag; also called construct #63; #63"}, "B8": {"name": "CD19-D1+2-C11D5.3 scFv (VL/VH) (scFv)", "chain": "PEEPLVVKVEEGDNAVLQCLKGTSDGPTQQLTWSRESPLKPFLKLSLGLPGLGIHMRPLAIWLFIFNVSQQMGGFYLCQPGPPSEKAWQPGWTVNVEGSGELFRWNVSDLGGLGCGLKNRSSEGPSSPSGKLMSPKLYVWAKDRPEIWEGEPPCLPPRDSLNQSLSQDLTMAPGSTLWLSCGVPPDSVSRGPLSWTHVHPKGPKSLLSLELKDDRPARDMWVMETGLLLPRATAQDAGKYYCHRGNLTMSFHLEITARPGGGGSGGGGSGGGGSGGGGSDIVLTQSPPSLAMSLGKRATISCRASESVTILGSHLIHWYQQKPGQPPTLLIQLASNVQTGVPARFSGSGSRTDFTLTIDPVEEDDVAVYYCLQSRTIPRTFGGGTKLEIKGSTSGSGKPGSGEGSTKGQIQLVQSGPELKKPGETVKISCKASGYTFTDYSINWVKRAPGKGLKWMGWINTETREPAYAYDFRGRFAFSLETSASTAYLQINNLKYEDTATYFCALDYSYAMDYWGQGTSVTVSSGGGGSGGGGSGGGGSHHHHHH", "notes": "His-tagged; also called construct #91; #91"}, "B9": {"name": "C11D5.3 scFv (VL/VH) (scFv)", "scFv": "DIVLTQSPPSLAMSLGKRATISCRASESVTILGSHLIHWYQQKPGQPPTLLIQLASNVQTGVPARFSGSGSRTDFTLTIDPVEEDDVAVYYCLQSRTIPRTFGGGTKLEIKGSTSGSGKPGSGEGSTKGQIQLVQSGPELKKPGETVKISCKASGYTFTDYSINWVKRAPGKGLKWMGWINTETREPAYAYDFRGRFAFSLETSASTAYLQINNLKYEDTATYFCALDYSYAMDYWGQGTSVTVSSGGGGSGGGGSGGGGSHHHHHH", "notes": "His-tagged; also called construct #89; #89"}}, "key": {"[1]": {"target": "T1, CD20 on stable transfectant line 293-CD20 (UniProt P11836 1-297)", "T1 construct": "whole, on cells; also called CD20 expressing 293 cells", "T1 sequence (looked up)": "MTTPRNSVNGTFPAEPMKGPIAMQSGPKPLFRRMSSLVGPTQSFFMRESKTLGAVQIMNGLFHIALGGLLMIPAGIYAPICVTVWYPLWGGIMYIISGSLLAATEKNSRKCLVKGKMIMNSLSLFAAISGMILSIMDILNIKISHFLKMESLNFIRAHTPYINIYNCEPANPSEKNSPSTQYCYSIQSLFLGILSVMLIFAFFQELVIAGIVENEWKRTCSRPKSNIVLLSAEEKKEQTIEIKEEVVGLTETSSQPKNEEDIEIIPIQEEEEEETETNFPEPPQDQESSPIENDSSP", "assay": "flow cytometry on 293-CD20 cells, FMC63-PE"}, "[2]": {"target": "T1, CD20 on stable transfectant line …", "assay": "flow cytometry on 293-CD20 cells, anti-His-PE or FMC63-PE"}, "[3]": {"target": "T2, Human BCMA Protein, Fc Tag (R&D Systems, Cat#193-BC-050) (human, UniProt Q02223 1-54)", "T2 construct": "Bought; also called Human BCMA-Fc; not shown: Fc tag of the bought protein", "T2 sequence (looked up)": "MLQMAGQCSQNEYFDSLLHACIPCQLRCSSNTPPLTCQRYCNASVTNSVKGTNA", "assay": "ELISA, plate-bound BCMA-Fc, anti-His-HRP"}, "[4]": {"target": "T3, Human Her2/ErbB2 Protein, Fc Tag (ACRO Biosystems, Cat# HE2-H5253) (human, UniProt P04626 23-652)", "T3 construct": "Bought; also called Her2-Fc; HER2-hFc; not shown: Fc tag of the bought protein", "assay": "ELISA: protein on FMC63-coated plate, Her2-Fc titrated, anti-hIgGFc-HRP"}, "[5]": {"target": "T1, CD20 on stable transfectant line …", "assay": "flow cytometry on 293-CD20 cells, 200 µl fusion protein, anti-His-PE"}, "[6]": {"target": "T1, CD20 on stable transfectant line …", "assay": "flow cytometry on 293-CD20 cells, 200 µl fusion protein, FMC63-PE"}}}
{"binder": "B1", "values": [{"measurement": "binding result", "setting": "[1]", "value": "no binding (tested: 200 µl fusion protein)"}]}
{"binder": "B2", "values": [{"measurement": "binding result", "setting": "[2]", "value": "binds"}]}
{"binder": "B3", "values": [{"measurement": "binding result", "setting": "[3]", "value": "binds"}]}
{"binder": "B4", "values": [{"measurement": "binding result", "setting": "[3]", "value": "binds"}]}
{"binder": "B5", "values": [{"measurement": "binding result", "setting": "[4]", "value": "no binding"}]}
{"binder": "B6", "values": [{"measurement": "binding result", "setting": "[5]", "value": "binds"}]}
{"binder": "B7", "values": [{"measurement": "binding result", "setting": "[6]", "value": "binds"}]}
{"binder": "B8", "values": [{"measurement": "binding result", "setting": "[3]", "value": "binds"}]}
{"binder": "B9", "values": [{"measurement": "binding result", "setting": "[3]", "value": "binds"}]}
